The test system of the data set is MS2 coat protein. Nature of the data set: apparent KD of MS2 coat protein; designed switch direction (-1 OFF switch, 1 ON switch): -1; higher = weaker reporter binding. The gist of the method: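 The buffer was Tris-HCl pH 7.5 with KCl, MgCl2, BSA, DTT, tRNA and Tween-20. In it, SNAP-549-labelled MS2 coat protein was titrated in doubling steps from 0.7 or 1.5 nM to 3 µM over chip-bound RNA switches transcribed by stalled E. coli RNA polymerase on Illumina chips. Apparent KD is the per-design median over clusters of curve fits to normalised fluorescence.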

Where [1] appears, read: input ligand: microRNA oligo, concentration not stated.

As for “UAAUUAGACUCAGGAUAUUCGAAGAGAAGAGAGGAAGAAGGGAGGUGACAUGAGGAUCACCCAUGUAUGUGUUGUGUCCAUGUG [Exclusion NG 1 S1] (Eterna round: R96, puzzle: Exclusion NG 1)”, the “apparent KD of MS2 coat protein” value amounted to 326 nM (input ligand: FMN 200 uM), 553 nM under setting [1] and 617 nM (input ligand: none).
In the case of “UAAUUAGCAAGUAGAUCCGACAUGAGGAUCACCCAUGUUAUCUGAAAGAACGCAGAAUAACUGUGAGCUCGUCUAAA [Sensor-V1 #1] (Eterna round: R97, puzzle: Sensor, turn-off variant 1)”, the “apparent KD of MS2 coat protein” value reads like this: (input ligand: FMN 200 uM) 315 nM; (input ligand: none) 333 nM.
Consider “UAAUUGAUUAAUAAAUUAUACAUGAGGAUCACCCAUGUAGAUCCUACGUGCCAUUUAAGUAGCUCGUCUUAUUAUUA [Sensor-V1 #64] (Eterna round: R97, puzzle: Sensor, turn-off variant 1)”, for which the “apparent KD of MS2 coat protein” value (input ligand: FMN 200 uM) came to 142 nM and the “apparent KD of MS2 coat protein” value (input ligand: none) came to 228 nM.
The like results for “UAAUUGAUUAAUAGAUUAUACAUGAGGAUCACCCAUGUAGGUCCUACGUGCCAUUUAAGUAGCUCGUCUUAUUAUUA [Sensor-V1 #66] (Eterna round: R97, puzzle: Sensor, turn-off variant 1)” were, in that order, 40.2 nM and 46.5 nM.
Turning to “UAAUUGUGAGGAUAUUCGUUGUUCUCGGAGACGAGAAUAACGGAGAAGGCACAUGAGGAUCACCCAUGUUCCUU [Mat - Exclusion 4 - JL Mod - D13] (Eterna round: R97, puzzle: Exclusion 4)”, the “apparent KD of MS2 coat protein” value is, setting by setting: (input ligand: FMN 200 uM) 98.4 nM; (input ligand: none) 18 nM.
The like results for “UACAAGCUUUAAAGAUCCUACAUGAGGAUCACCCAUGUGCUCGUCUUAUAACGUACUGUGACGAAAGUCACGGUACG [JL TOV1 3.20] (Eterna round: R97, puzzle: Sensor, turn-off variant 1)” were, in that order, 200 nM and 246 nM.
The like results for “UACAAGCUUUUAAGAUCCCACAUGAGGAUCACCCAUGUGCUCGUCUUGUAACGUACUGUGACGAAAGUCACGGUACG [JL TOV1 3.23] (Eterna round: R97, puzzle: Sensor, turn-off variant 1)” were, in that order, 26.7 nM and 27.5 nM.
The like results for “UACACUGCAUGAGGAUCAAACAUGAGGAUCACCCAUGUAUAGCAAGCUUUUUGCGCGUCUUAUAAUUAUGUAGUGUA [Electric Eye 19 - Jieux - Sensor, turn-off variant 1] (Eterna round: R97, puzzle: Sensor, turn-off variant 1)” were, in that order, 15.8 nM and 15.4 nM.
Turning to “UACACUGCAUGAGGAUCAAACAUGAGGAUCACCCAUGUGUAGCAAGCUUUUUGCUCGUCUUAUAAUUAUGUAGUGUA [Electric Eye 11 - Jieux - Sensor, turn-off variant 1] (Eterna round: R97, puzzle: Sensor, turn-off variant 1)”, the “apparent KD of MS2 coat protein” value (input ligand: FMN 200 uM) is 14 nM and the “apparent KD of MS2 coat protein” value (input ligand: none) came to 12.1 nM.
Regarding “UACAGACAUGAGGAUCACCCAUGUUAGGAUAUGCAGAACUCUACUCACGUGGCGUUUAGCAGAAGGAAUACGGG [Eternabot (L1) Solution 68] (Eterna round: R97, puzzle: Exclusion 1)”, the “apparent KD of MS2 coat protein” value came out at 122 nM (input ligand: FMN 200 uM) and 74.6 nM (input ligand: none).
The like results for “UACAGUCAUCCUUAUUGUUACAUGAGGAUCACCCAUGUUAGUAUAAUUAAGUUAUGUAAGUUUGUUGUUCGUUUUAU [JR_STOV1_v2_Sub075] (Eterna round: R97, puzzle: Sensor, turn-off variant 1)” were, in that order, 81.9 nM and 84.6 nM.
For the sequence “UACAUGAGGAUCACCCAUGUCGGGUAAACGAAGGUUACUCAAGAGGAUAUAAAACCGAAAGGGUUUUAGAAGGCUUUUCCUCGA [Eternabot solution 27] (Eterna round: R96, puzzle: Exclusion NG 3)”, the “apparent KD of MS2 coat protein” value is, setting by setting: (input ligand: FMN 200 uM) 92.3 nM; under setting [1], 46 nM; (input ligand: none) 86.7 nM.
For “UACAUGAGGAUCACCCAUGUUUUAUCAUGUGUAAUAAUAAUGUAGGAUAUGUAUUAUUUAUUUUAACAGAAGGACAAUAAUAAA [JMF's solution 1] (Eterna round: R96, puzzle: Exclusion NG 3)” the same measures were 279 nM, 265 nM and 362 nM.
The like results for “UACAUGAGGAUCACCCAUGUUUUGUCGUGUAUGGUACCCGUCUAGGAUAUCGUGUUAUUGGACCACGAGAAGGAGAGUAUCAAU [Excl-NG3-LRO02] (Eterna round: R96, puzzle: Exclusion NG 3)” were, in that order, 42.6 nM, 20.3 nM and 31.7 nM.
The like results for “UACAUGAGGAUCACCCAUGUUUUGUCGUGUAUGGUAUUUAUCUAGGAUAUCAAUCUAUUUAAUUAUGAGAAGGAGAAUAUUAAU [JMF's solution 53] (Eterna round: R96, puzzle: Exclusion NG 3)” were, in that order, 37.2 nM, 32.5 nM and 39.3 nM.
As to “UACAUGAGGAUCACCCAUGUUUUGUCGUGUAUGGUAUUUAUCUAGGAUAUCAAUCUAUUUAGUUAUGAGAAGGAGAAUAUUAAU [JMF's solution 54] (Eterna round: R96, puzzle: Exclusion NG 3)”, the “apparent KD of MS2 coat protein” value came to 39.1 nM (input ligand: FMN 200 uM), 29.9 nM under setting [1] and 37.8 nM (input ligand: none).
Regarding “UACAUGAGGAUCACCCAUGUUUUGUCGUGUAUGGUAUUUAUCUAGGAUAUCAAUGAAUUUAUUUAUGAGAAGGAGAAUAUUAAU [JMF's solution 37] (Eterna round: R96, puzzle: Exclusion NG 3)”, under setting [1], the “apparent KD of MS2 coat protein” value was 30.7 nM.
On the same count and under the same terms, for “UACAUGAGGAUCACCCAUGUUUUGUCGUGUAUGGUAUUUAUCUAGGAUAUCAAUUGAUUUAAUUAUGAGAAGGAGAAUAUUAAU [JMF's solution 61] (Eterna round: R96, puzzle: Exclusion NG 3)” the value was 29.3 nM.
Consider “UACAUGAGGAUCACCCAUGUUUUGUCGUGUAUGGUAUUUAUCUAGGAUAUCAAUUUAGUUAGUUAUGAGAAGGAGAAUAUUAAU [JMF's solution 76] (Eterna round: R96, puzzle: Exclusion NG 3)”, for which the “apparent KD of MS2 coat protein” value was 48 nM (input ligand: FMN 200 uM), 21.1 nM under setting [1] and 43.8 nM (input ligand: none).
For “UACAUGAGGAUCACCCAUGUUUUGUCGUGUAUGGUAUUUAUCUAGGAUAUCAAUUUAUUUAAUUAUGAGAAGGAGAAUAUUAAU [JMF's solution 21] (Eterna round: R96, puzzle: Exclusion NG 3)” the same measures were 36.3 nM, 27.7 nM and 34.7 nM.
The like results for “UACAUGAGGAUCACCCAUGUUUUGUCGUGUAUGGUAUUUAUCUAGGAUAUCAGGUUAUUUAUUUAUGAGAAGGAGAAUAUUAAU [JMF's solution 25] (Eterna round: R96, puzzle: Exclusion NG 3)” were, in that order, 33.3 nM, 37.5 nM and 34.3 nM.
The like results for “UACAUGAGGAUCACCCAUGUUUUGUCGUGUAUGGUAUUUAUCUAGGAUAUCAGUUUAUUUAUUUAUGAGAAGGAGAAUAUUAAU [JMF's solution 7] (Eterna round: R96, puzzle: Exclusion NG 3)” were, in that order, 28 nM, 22.4 nM and 32.7 nM.
Take “UACAUGAGGAUCACCCAUGUUUUGUCGUGUAUGGUAUUUAUCUAGGAUAUCGAUUUAUUUAACCACGAGAAGGAGAGUAUCAAU [MOD Solution 21 by JMF] (Eterna round: R96, puzzle: Exclusion NG 3)”: the “apparent KD of MS2 coat protein” value is, setting by setting: (input ligand: FMN 200 uM) 46.4 nM; under setting [1], 36.8 nM; (input ligand: none) 44.1 nM.
With “UACAUGAGGAUCACCCAUGUUUUGUCGUGUAUGGUAUUUAUCUAGGAUAUCGUUUUAUUUAACCACGAGAAGGAGAGUAUCAAU [MOD2 Solution 21 by JMF] (Eterna round: R96, puzzle: Exclusion NG 3)”, the “apparent KD of MS2 coat protein” value is 33.9 nM under setting [1] and 39.7 nM (input ligand: none).
“UACAUGAGGAUCACCCAUGUUUUGUCGUGUUUGGUACCCGUUUAGGAUAUCGUGUUAUUGGACCGCGAGAAGGAGAGUAUCAUU [Excl-NG3-LRO06] (Eterna round: R96, puzzle: Exclusion NG 3)”: the “apparent KD of MS2 coat protein” value is, setting by setting: (input ligand: FMN 200 uM) 32.2 nM; under setting [1], 18.4 nM; (input ligand: none) 39.9 nM.
“UACAUGUGAGGAUAUUAGUAGUAAAUAAAUAAAAUUAUUACUGAGAAGGUACAUGAGGAUCACCCAUGUUCCUU [Salish 062 v23] (Eterna round: R97, puzzle: Exclusion 4)”: the “apparent KD of MS2 coat protein” value by setting is: (input ligand: FMN 200 uM) 17.5 nM; (input ligand: none) 12.7 nM.
The like results for “UACCCGUGAGGAUAUAGAGUCCUACACAUGAGGAUCACCCAUGUCAGCCUUAUCGUGGAUCUAGAAGGCAUAAACG [Eternabot (L1) Solution 88] (Eterna round: R97, puzzle: Exclusion 5)” were, in that order, 103 nM and 183 nM.
For the sequence “UACCUAUAGGUAGGAUAUCAUUGCGAUUAGCUAUGAGAAGGACCACAUGAGGAUCACCCAUGUCCUCCAAUUAACCGAAAGGUA [Fiskers ExNg1 - 2] (Eterna round: R96, puzzle: Exclusion NG 1)”, the “apparent KD of MS2 coat protein” value is, setting by setting: (input ligand: FMN 200 uM) 77.3 nM; under setting [1], 39.7 nM; (input ligand: none) 50.4 nM.

Source of the values: the supplement of paper PMC9170038.
